# Key:
# human PD-L1 = molecular target: T1, human PD-L1 (human, UniProt Q9NZQ7 19-238, limits assumed); experiment: Surface Plasmon Resonance
# T1 construct: also called PD-1 ligand 1; CD274
# mouse PD-L1 = molecular target: T2, mouse PD-L1 (mouse, UniProt Q9EP73 19-238, limits assumed); experiment: Surface Plasmon Resonance
# T2 construct: also called murine PDL1
# HSP110 = molecular target: T3, HSP110 (human, UniProt Q92598 1-858, limits assumed)
# T3 construct: also called HSPH1; Hsp105
# T3 sequence (Q92598 whole entry): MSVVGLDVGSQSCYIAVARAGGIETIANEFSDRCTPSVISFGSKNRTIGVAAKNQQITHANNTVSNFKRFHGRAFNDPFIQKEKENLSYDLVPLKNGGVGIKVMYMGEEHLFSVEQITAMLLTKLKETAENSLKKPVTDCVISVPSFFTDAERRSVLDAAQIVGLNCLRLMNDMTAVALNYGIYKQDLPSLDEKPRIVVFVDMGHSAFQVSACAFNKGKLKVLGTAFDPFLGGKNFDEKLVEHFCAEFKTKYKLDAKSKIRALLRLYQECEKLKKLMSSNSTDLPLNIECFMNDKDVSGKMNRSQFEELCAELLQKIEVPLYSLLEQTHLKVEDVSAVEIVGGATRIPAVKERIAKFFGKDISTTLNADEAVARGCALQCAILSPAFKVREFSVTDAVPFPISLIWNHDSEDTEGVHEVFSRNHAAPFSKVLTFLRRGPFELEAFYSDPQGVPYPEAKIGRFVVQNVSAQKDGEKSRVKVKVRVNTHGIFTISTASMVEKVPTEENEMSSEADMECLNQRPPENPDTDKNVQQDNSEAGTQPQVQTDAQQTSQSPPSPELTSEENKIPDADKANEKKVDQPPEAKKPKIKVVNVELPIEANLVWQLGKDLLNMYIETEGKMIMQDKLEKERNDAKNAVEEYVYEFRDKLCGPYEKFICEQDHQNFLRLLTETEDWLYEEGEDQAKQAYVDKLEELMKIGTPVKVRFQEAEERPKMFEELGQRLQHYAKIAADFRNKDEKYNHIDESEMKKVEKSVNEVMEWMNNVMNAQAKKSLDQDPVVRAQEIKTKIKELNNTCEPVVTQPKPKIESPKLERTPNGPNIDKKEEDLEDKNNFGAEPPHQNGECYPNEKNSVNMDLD
# T2 sequence (Q9EP73 19-238 limits assumed): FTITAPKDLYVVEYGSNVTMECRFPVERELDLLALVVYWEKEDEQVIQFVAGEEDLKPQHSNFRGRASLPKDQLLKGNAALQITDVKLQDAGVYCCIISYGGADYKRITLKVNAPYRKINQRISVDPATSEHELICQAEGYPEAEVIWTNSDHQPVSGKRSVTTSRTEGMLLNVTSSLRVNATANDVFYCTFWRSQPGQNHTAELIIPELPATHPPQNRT
# T1 sequence (Q9NZQ7 19-238 limits assumed): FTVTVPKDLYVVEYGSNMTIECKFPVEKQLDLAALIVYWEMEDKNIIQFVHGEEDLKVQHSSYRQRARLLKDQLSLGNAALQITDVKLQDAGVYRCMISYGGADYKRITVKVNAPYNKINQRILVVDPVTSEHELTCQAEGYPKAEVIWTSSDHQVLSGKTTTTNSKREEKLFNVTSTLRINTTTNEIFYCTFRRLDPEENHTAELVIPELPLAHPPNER
Kd (human PD-L1) [nM],Kd (mouse PD-L1) [nM],Kd (HSP110) [nM],Binder
~15,~3.2,,"B11 (Sac7d variant binding to PD-L1, SEQ ID NO: 21) (designed binder, also called NF2; NF-B11) MVKVKFVIGGEEKEVDTSKIKTVRRIGKYVLFKYDDNGKTGMGLVSEKDAPKELLDMLARAEREKK"
,,< 1,"A-C2 (Sac7d variant binding to HSP110, SEQ ID NO: 27) (designed binder, also called NF1; anti-HSP110 variant) MVKVKFMWRGEEKEVDTSKIWDVWRSGKTVYFHYDDNGKMGQGKVHEKDAPKELLDMLARAEREKK"

# — patent publication US20230120167A1 (AFFILOGIC, published 2023)
